Laboratory results reported in publication doi:10.1101/2024.02.19.580982 (bioRxiv, 2024).

Target: α-Synuclein preformed fibrils (α-Syn PFF) (mouse, UniProt O55042 1-140)
Experiment: ELISA

Kd	Binder
0.42 µM	ΔNBD hNOD2-Fc (Fc fusion) MGEEGGSASHDEEERASVLLGHSPGCEMCSQEAFQAQRSQLVELLVSGSLEGFESVLDWLLSWEVLSWEDYEGFHLLGQPLSHLARRLLDTVWNKGTWACQKLIAAAQEAQADSQSPKLHGCWDPHSLHPARDLQSHRPAIVRRLHSHVENMLDLAWERGFVSQYECDEIRLPIFTPSQRARRLLDLATVKANGLAAFLLQHVQELPVPLALPLEAATCKKYMAKLRTTVSAQSRFLSTYDGAETLCLEDIYTENVLEVWADVGMAGPPQKSPATLGLEELFSTPGHLNDDAADVPPALLRHLFNCGRPGNSPMARLLPTMCIQASEGKDSSVAALLQKAEPHNLQITAAFLAGLLSREHWGLLAECQTSEKALLRRQACARWCLARSLRKHFHSIPPAAPGEAKSVHAMPGFIWLIRSLYEMQEERLARKAARGLNVGHLKLTFCSVGPTECAALAFVLQHLRRPVALQLDYNSVGDIGVEQLLPCLGVCKALYLRDNNISDRGICKLIECALHCEQLQKLALFNNKLTDGCAHSMAKLLACRQNFLALRLGNNYITAAGAQVLAEGLRGNTSLQFLGFWGNRVGDEGAQALAEALGDHQSLRWLSLVGNNIGSVGAQALALMLAKNVMLEELCLEENHLQDEGVCSLAEGLKKNSSLKILKLSNNCITYLGAEALLQALERNDTILEVWLRGNTFSLEEVDKLGCRDTRLLL
16.4 µM	ΔCARD hNOD2-Fc (Fc fusion) CKKYMAKLRTTVSAQSRFLSTYDGAETLCLEDIYTENVLEVWADVGMAGPPQKSPATLGLEELFSTPGHLNDDADTVLVVGEAGSGKSTLLQRLHLLWAAGQDFQEFLFVFPFSCRQLQCMAKPLSVRTLLFEHCCWPDVGQEDIFQLLLDHPDRVLLTFDGFDEFKFRFTDRERHCSPTDPTSVQTLLFNLLQGNLLKNARKVVTSRPAAVSAFLRKYIRTEFNLKGFSEQGIELYLRKRHHEPGVADRLIRLLQETSALHGLCHLPVFSWMVSKCHQELLLQEGGSPKTTTDMYLLILQHFLLHATPPDSASQGLGPSLLRGRLPTLLHLGRLALWGLGMCCYVFSAQQLQAAQVSPDDISLGFLVRAKGVVPGSTAPLEFLHITFQCFFAAFYLALSADVPPALLRHLFNCGRPGNSPMARLLPTMCIQASEGKDSSVAALLQKAEPHNLQITAAFLAGLLSREHWGLLAECQTSEKALLRRQACARWCLARSLRKHFHSIPPAAPGEAKSVHAMPGFIWLIRSLYEMQEERLARKAARGLNVGHLKLTFCSVGPTECAALAFVLQHLRRPVALQLDYNSVGDIGVEQLLPCLGVCKALYLRDNNISDRGICKLIECALHCEQLQKLALFNNKLTDGCAHSMAKLLACRQNFLALRLGNNYITAAGAQVLAEGLRGNTSLQFLGFWGNRVGDEGAQALAEALGDHQSLRWLSLVGNNIGSVGAQALALMLAKNVMLEELCLEENHLQDEGVCSLAEGLKKNSSLKILKLSNNCITYLGAEALLQALERNDTILEVWLRGNTFSLEEVDKLGCRDTRLLL
